Data on three molecules can be found in paper PMC6934807, “Development of hypoallergenic variants of the major horse allergen Equ c 1 for immunotherapy by rational structure based engineering” (Scientific Reports, 2019).

Data set [1] concerns the molecule itself. Kind of data set: cell-based or functional assay.
The target of data set [2] is T1, recombinant Equ c 1 wild type (Equ c 1.0101) (horse).
T1 chain: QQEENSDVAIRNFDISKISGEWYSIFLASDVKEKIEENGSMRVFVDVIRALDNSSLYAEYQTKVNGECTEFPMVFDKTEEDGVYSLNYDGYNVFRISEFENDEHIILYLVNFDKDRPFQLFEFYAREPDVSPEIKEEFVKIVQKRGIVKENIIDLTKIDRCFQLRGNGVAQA
Kind of data set: SEC; SE-UHPLC, Acquity BEH125 SEC column, PBS (12 mM Na2HPO4, 3 mM NaH2PO4, 150 mM NaCl, pH 7.3), 2 µl of a 40 µM protein solution injected, compared with protein standards. The following applies: both partners purified. (SEC sorts molecules by how far they enter the pores of the column.)

Data set [3] concerns the target T1, recombinant Equ c 1 wild type (Equ c …). Kind of data set: native MS; native ESI FT-ICR MS, dilution series 0.1-4.8 µM (monomer) in 10 mM ammonium acetate, diluted samples kept four days at +4 °C, five parallel spectra per concentration; Kd from monomer and dimer ion intensities; dimer to monomers. The following applies: both partners purified.
Data set [4] concerns the molecule itself. Kind of data set: native MS; native ESI FT-ICR MS at 40 µM protein, 10 mM ammonium acetate pH 6.9; Kd of Triple 3 estimated from monomer and dimer intensities at this single concentration; dimer to monomers.

B1: Equ c 1 Triple 2 (V47K + V110E + F112K) (natural protein)
chain: QQEENSDVAIRNFDISKISGEWYSIFLASDVKEKIEENGSMRVFVDKIRALDNSSLYAEYQTKVNGECTEFPMVFDKTEEDGVYSLNYDGYNVFRISEFENDEHIILYLENKDKDRPFQLFEFYAREPDVSPEIKEEFVKIVQKRGIVKENIIDLTKIDRCFQLRGNGVAQA
B1: in data set [1], the “EC50 of histamine release from stripped basophils passively sensitised with serum A of a horse allergic person” value was found to be 0.11 nM, the “EC50 of histamine release from stripped basophils passively sensitised with serum B of a horse allergic person” value turned out to be 0.24 nM, the “EC50 of histamine release from stripped basophils passively sensitised with serum C of a horse allergic person” value turned out to be 0.22 nM and the “EC50 of histamine release from stripped basophils passively sensitised with serum D of a horse allergic person” value turned out to be 0.18 nM. In data set [1], the “EC50 of histamine release from stripped basophils passively sensitised with serum E of a horse allergic person” value turned out to be 0.84 nM; the “EC50 of histamine release from stripped basophils passively sensitised with serum F (RefLab's positive control serum)” value stood at 0.72 nM; the “EC50 of histamine release from stripped basophils, median of the six sera” value is 0.23 nM.

B2: recombinant Equ c 1 wild type (Equ c 1.0101) (natural protein)
chain: QQEENSDVAIRNFDISKISGEWYSIFLASDVKEKIEENGSMRVFVDVIRALDNSSLYAEYQTKVNGECTEFPMVFDKTEEDGVYSLNYDGYNVFRISEFENDEHIILYLVNFDKDRPFQLFEFYAREPDVSPEIKEEFVKIVQKRGIVKENIIDLTKIDRCFQLRGNGVAQA
modifications: extra vector-derived N-terminal Ala left out; disulfide Cys68-Cys161 (mature numbering, precursor = +15); homodimer at micromolar concentration (Kd 15.6 nM) / extra vector-derived N-terminal Ala left
B2: the stoichiometry N (usually a count of units in the complex or per binding partner) in data set [2] was determined as 2. In data set [3], the Kd (usually the free concentration of one partner at which half of the binding sites on the other are occupied at equilibrium, for simple one-to-one binding) came to 15.6 ± 0.8 nM.

B3: Equ c 1 Triple 3 (E21Y + V110E + F112K) (natural protein)
chain: QQEENSDVAIRNFDISKISGYWYSIFLASDVKEKIEENGSMRVFVDVIRALDNSSLYAEYQTKVNGECTEFPMVFDKTEEDGVYSLNYDGYNVFRISEFENDEHIILYLENKDKDRPFQLFEFYAREPDVSPEIKEEFVKIVQKRGIVKENIIDLTKIDRCFQLRGNGVAQA
With B3, in data set [1], the “EC50 of histamine release from stripped basophils passively sensitised with serum A of a horse allergic person” value turned out to be 0.29 nM, the “EC50 of histamine release from stripped basophils passively sensitised with serum B of a horse allergic person” value came out at 0.42 nM, the “EC50 of histamine release from stripped basophils passively sensitised with serum C of a horse allergic person” value is 0.52 nM and the “EC50 of histamine release from stripped basophils passively sensitised with serum D of a horse allergic person” value stood at 0.26 nM. In data set [1], the “EC50 of histamine release from stripped basophils passively sensitised with serum E of a horse allergic person” value is 3.7 nM; the “EC50 of histamine release from stripped basophils passively sensitised with serum F (RefLab's positive control serum)” value stood at 1.1 nM; the “EC50 of histamine release from stripped basophils, median of the six sera” value stood at 0.47 nM. For the same molecule, the dissociation constant (Kd) in data set [4] was ~800000 nM.
